T1: FLAG-Ubr1, P19812
T1 chain: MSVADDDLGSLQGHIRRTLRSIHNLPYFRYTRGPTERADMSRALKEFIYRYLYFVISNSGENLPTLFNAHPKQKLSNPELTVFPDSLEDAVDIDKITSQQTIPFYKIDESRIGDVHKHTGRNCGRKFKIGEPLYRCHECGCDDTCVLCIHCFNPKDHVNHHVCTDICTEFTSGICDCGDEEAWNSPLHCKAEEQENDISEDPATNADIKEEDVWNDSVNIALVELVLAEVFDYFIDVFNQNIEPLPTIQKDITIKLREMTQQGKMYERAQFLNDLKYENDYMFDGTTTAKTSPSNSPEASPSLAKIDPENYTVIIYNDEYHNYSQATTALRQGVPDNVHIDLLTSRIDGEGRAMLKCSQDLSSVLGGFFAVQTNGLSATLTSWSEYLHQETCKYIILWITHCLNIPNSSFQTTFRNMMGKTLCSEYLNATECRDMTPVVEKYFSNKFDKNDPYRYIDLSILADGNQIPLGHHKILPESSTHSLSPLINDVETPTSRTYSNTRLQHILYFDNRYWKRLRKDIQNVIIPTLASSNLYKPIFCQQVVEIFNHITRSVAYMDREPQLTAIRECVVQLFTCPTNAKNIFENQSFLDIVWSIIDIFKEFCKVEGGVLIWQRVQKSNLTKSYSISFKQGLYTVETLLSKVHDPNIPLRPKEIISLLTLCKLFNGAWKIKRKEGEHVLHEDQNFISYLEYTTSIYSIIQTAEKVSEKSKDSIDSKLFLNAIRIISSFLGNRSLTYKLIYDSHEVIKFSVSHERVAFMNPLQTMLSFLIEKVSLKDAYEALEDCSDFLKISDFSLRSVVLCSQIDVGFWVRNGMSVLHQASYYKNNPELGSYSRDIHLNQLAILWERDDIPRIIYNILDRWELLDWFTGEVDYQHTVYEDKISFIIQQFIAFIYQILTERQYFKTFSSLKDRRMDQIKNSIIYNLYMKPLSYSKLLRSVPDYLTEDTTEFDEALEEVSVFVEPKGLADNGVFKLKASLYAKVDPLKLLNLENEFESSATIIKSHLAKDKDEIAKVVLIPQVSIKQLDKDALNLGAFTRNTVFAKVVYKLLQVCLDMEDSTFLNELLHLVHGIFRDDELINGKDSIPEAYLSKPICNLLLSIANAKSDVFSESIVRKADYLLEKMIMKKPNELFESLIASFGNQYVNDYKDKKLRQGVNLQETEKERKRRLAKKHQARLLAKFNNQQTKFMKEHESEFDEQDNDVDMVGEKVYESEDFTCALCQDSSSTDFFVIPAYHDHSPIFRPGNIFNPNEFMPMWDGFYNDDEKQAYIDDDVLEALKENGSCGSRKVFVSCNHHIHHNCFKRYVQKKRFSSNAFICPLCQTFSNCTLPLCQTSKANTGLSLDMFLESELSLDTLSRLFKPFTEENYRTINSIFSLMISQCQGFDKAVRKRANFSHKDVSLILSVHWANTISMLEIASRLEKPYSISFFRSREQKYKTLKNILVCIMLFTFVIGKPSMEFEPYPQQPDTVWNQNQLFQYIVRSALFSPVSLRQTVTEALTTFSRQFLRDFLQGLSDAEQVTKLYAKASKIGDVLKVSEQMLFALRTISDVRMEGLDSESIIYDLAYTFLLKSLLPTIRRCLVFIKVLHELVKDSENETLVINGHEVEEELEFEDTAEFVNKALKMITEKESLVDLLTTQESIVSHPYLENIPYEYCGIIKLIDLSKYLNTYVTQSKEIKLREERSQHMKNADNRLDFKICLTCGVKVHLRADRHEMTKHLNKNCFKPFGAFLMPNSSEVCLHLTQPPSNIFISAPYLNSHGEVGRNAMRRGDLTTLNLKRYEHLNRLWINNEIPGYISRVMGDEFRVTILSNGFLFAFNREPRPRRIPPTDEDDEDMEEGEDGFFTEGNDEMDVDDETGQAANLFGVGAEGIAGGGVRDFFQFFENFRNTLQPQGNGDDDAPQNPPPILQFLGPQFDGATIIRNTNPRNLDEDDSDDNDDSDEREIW


Tests used:
[1] = target: T2, FLAG-Ubr1 (S. cerevisiae, UniProt P19812 1-1950); experiment: BLI; biotinylated Rad6 immobilised on streptavidin biosensors, 100 nM soluble Ubr1, without or with 200 nM or 1 µM Roq1(22-104); essentially irreversible, only association analysed; conditions: both partners purified
T2 construct: ubiquitin ligase Ubr1 of yeast; single subunit of about 200 kDa, nearly 2000 residues; The purified protein comes from a strain with ubr1::nat-PGPD-FLAG-UBR1, so probably the whole protein; source: protease-deficient yeast expressing FLAG-Ubr1 (SSY2908), purified (anti-FLAG agarose, eluted with FLAG peptide); roq1 knockout yeast expressing FLAG-Ubr1, in lysate; not shown: FLAG, N-terminal, kept

[2] = target: T1, FLAG-Ubr1, P19812; experiment: biolayer interferometry; conditions: chain shown with the change; 50 nM Ubr1, association step 5 min; value read at end of association (300 s); 50 mM HEPES, 150 mM NaCl, 10 mM MgCl2, 0.05% Tween-20, 0.02% BSA; parent: est. 4.5; read off a plot

Row | Binder | binding result [1] | response [2] [nm]
1 | Rad6 (enzyme, UniProt P06104 1-172, looked up, biotin (amino-reactive NHS-PEG4-Biotin), ubiquitin-conjugating enzyme Rad6, not conjugated to ubiquitin; The plasmid pCA528-Rad6 was a gift (Axel Mogk); It is probably the yeast protein; also called unloaded Rad6; source: E. coli BL21(DE3), purified (His6-SUMO removed with Ulp1, SEC); not shown: His6-SUMO, N-terminal, cleaved) MSTPARRRLMRDFKRMKEDAPPGVSASPLPDNVMVWNAMIIGPADTPYEDGTFRLLLEFDEEYPNKPPHVKFLSEMFHPNVYANGEICLDILQNRWTPTYDVASILTSIQSLFNDPNPASPANVEAATLFKDHKSQYVKRVKETVEKSWEDDMDDMDDDDDDDDDDDDDEAD | binds | –
2 | Roq1(22-104) Y55A; Y56A; F57A; V58A (protein) RSQRDQTRVDSLVEESPMGDFGINNQPTQPGVIAAAAELTNLGIQENTSSNNNNNNNHGDDENGSRYGHGSSLGGDVHSRRCS | – | 2

Now from value to binder:

Row | binding result [1] | response [2] [nm] | Binder
3 | – | 0 | Roq1(22-104) R22A; Y55A; Y56A; F57A; V58A (protein) ASQRDQTRVDSLVEESPMGDFGINNQPTQPGVIAAAAELTNLGIQENTSSNNNNNNNHGDDENGSRYGHGSSLGGDVHSRRCS
4 | – | 0.5 | Roq1(22-104) R22A (protein) ASQRDQTRVDSLVEESPMGDFGINNQPTQPGVIYYFVELTNLGIQENTSSNNNNNNNHGDDENGSRYGHGSSLGGDVHSRRCS
